Data published in the Human Domainome abundance scans (Beltran et al. 2025).
± gives the uncertainty stated by the source.

Experiment: abundance fitness (aPCA) (normalised: wild type 0, dead -1); higher = more abundant; growth selection in yeast, the domain comes from the species named
Conditions: Homo sapiens

Substance | abundance fitness
Scaffold attachment factor B1 S50T, Q15424 | -0.312 ± 0.093
Scaffold attachment factor B1 S50V, Q15424 | -0.236 ± 0.068
Scaffold attachment factor B1 S50W, Q15424 | -0.226 ± 0.068
Scaffold attachment factor B1 S50Y, Q15424 | -0.248 ± 0.074
Scaffold attachment factor B1 S51A, Q15424 | -0.299 ± 0.071
Scaffold attachment factor B1 S51C, Q15424 | -0.217 ± 0.07
Scaffold attachment factor B1 S51E, Q15424 | -0.247 ± 0.078
Scaffold attachment factor B1 S51F, Q15424 | -0.389 ± 0.085
Scaffold attachment factor B1 S51G, Q15424 | -0.111 ± 0.058
Scaffold attachment factor B1 S51H, Q15424 | -0.26 ± 0.11
Scaffold attachment factor B1 S51I, Q15424 | -0.153 ± 0.089
Scaffold attachment factor B1 S51K, Q15424 | -0.327 ± 0.093
Scaffold attachment factor B1 S51L, Q15424 | -0.197 ± 0.061
Scaffold attachment factor B1 S51M, Q15424 | -0.284 ± 0.07
Scaffold attachment factor B1 S51N, Q15424 | -0.167 ± 0.1
Scaffold attachment factor B1 S51P, Q15424 | -0.879 ± 0.11
Scaffold attachment factor B1 S51Q, Q15424 | -0.271 ± 0.079
Scaffold attachment factor B1 S51R, Q15424 | -0.141 ± 0.076
Scaffold attachment factor B1 S51T, Q15424 | -0.326 ± 0.081
Scaffold attachment factor B1 S51V, Q15424 | -0.118 ± 0.061
Scaffold attachment factor B1 S51W, Q15424 | -0.55 ± 0.088
Scaffold attachment factor B1 S51Y, Q15424 | -0.472 ± 0.11

Substance | abundance fitness
Scaffold attachment factor B1 S55A, Q15424 | -0.207 ± 0.076
Scaffold attachment factor B1 S55D, Q15424 | -0.187 ± 0.082
Scaffold attachment factor B1 S55E, Q15424 | -0.092 ± 0.069
Scaffold attachment factor B1 S55F, Q15424 | -0.223 ± 0.054
Scaffold attachment factor B1 S55G, Q15424 | -0.144 ± 0.066
Scaffold attachment factor B1 S55H, Q15424 | -0.291 ± 0.091
Scaffold attachment factor B1 S55I, Q15424 | -0.261 ± 0.09
Scaffold attachment factor B1 S55K, Q15424 | -0.229 ± 0.093
Scaffold attachment factor B1 S55L, Q15424 | -0.147 ± 0.049
Scaffold attachment factor B1 S55M, Q15424 | -0.12 ± 0.072
Scaffold attachment factor B1 S55N, Q15424 | -0.13 ± 0.08
Scaffold attachment factor B1 S55P, Q15424 | -0.429 ± 0.1
Scaffold attachment factor B1 S55Q, Q15424 | -0.133 ± 0.059
Scaffold attachment factor B1 S55R, Q15424 | -0.083 ± 0.06
Scaffold attachment factor B1 S55T, Q15424 | -0.199 ± 0.071
Scaffold attachment factor B1 S55V, Q15424 | -0.081 ± 0.055
Scaffold attachment factor B1 S55W, Q15424 | -0.287 ± 0.056
Scaffold attachment factor B1 S55Y, Q15424 | -0.307 ± 0.08
Scaffold attachment factor B1 S79A, Q15424 | -0.127 ± 0.065
Scaffold attachment factor B1 S79C, Q15424 | -0.286 ± 0.077
Scaffold attachment factor B1 S79E, Q15424 | -0.288 ± 0.097
Scaffold attachment factor B1 S79F, Q15424 | -0.239 ± 0.08

Substance | abundance fitness
Scaffold attachment factor B1 S79G, Q15424 | -0.119 ± 0.062
Scaffold attachment factor B1 S79H, Q15424 | -0.266 ± 0.086
Scaffold attachment factor B1 S79K, Q15424 | -0.229 ± 0.1
Scaffold attachment factor B1 S79L, Q15424 | -0.118 ± 0.068
Scaffold attachment factor B1 S79M, Q15424 | -0.136 ± 0.063
Scaffold attachment factor B1 S79N, Q15424 | -0.264 ± 0.091
Scaffold attachment factor B1 S79P, Q15424 | -0.108 ± 0.06
Scaffold attachment factor B1 S79Q, Q15424 | -0.443 ± 0.11
Scaffold attachment factor B1 S79R, Q15424 | -0.25 ± 0.081
Scaffold attachment factor B1 S79T, Q15424 | -0.129 ± 0.062
Scaffold attachment factor B1 S79V, Q15424 | -0.131 ± 0.06
Scaffold attachment factor B1 S79W, Q15424 | -0.409 ± 0.087
Scaffold attachment factor B1 S79Y, Q15424 | -0.286 ± 0.078
Scaffold attachment factor B1 T26A, Q15424 | -0.282 ± 0.12
Scaffold attachment factor B1 T26C, Q15424 | -0.22 ± 0.079
Scaffold attachment factor B1 T26D, Q15424 | -0.915 ± 0.36
Scaffold attachment factor B1 T26E, Q15424 | -0.242 ± 0.13
Scaffold attachment factor B1 T26G, Q15424 | -0.304 ± 0.071
Scaffold attachment factor B1 T26I, Q15424 | -0.314 ± 0.14
Scaffold attachment factor B1 T26K, Q15424 | -0.31 ± 0.14
Scaffold attachment factor B1 T26L, Q15424 | -0.518 ± 0.15
Scaffold attachment factor B1 T26M, Q15424 | -0.213 ± 0.12

Substance | abundance fitness
Scaffold attachment factor B1 T26N, Q15424 | -0.936 ± 0.37
Scaffold attachment factor B1 T26P, Q15424 | -0.565 ± 0.16
Scaffold attachment factor B1 T26Q, Q15424 | -1.01 ± 0.34
Scaffold attachment factor B1 T26S, Q15424 | -0.452 ± 0.099
Scaffold attachment factor B1 T26V, Q15424 | -0.417 ± 0.12
Scaffold attachment factor B1 T26W, Q15424 | -0.355 ± 0.075
Scaffold attachment factor B1 T28A, Q15424 | -0.519 ± 0.083
Scaffold attachment factor B1 T28D, Q15424 | -0.257 ± 0.1
Scaffold attachment factor B1 T28E, Q15424 | -0.261 ± 0.08
Scaffold attachment factor B1 T28F, Q15424 | -0.142 ± 0.084
Scaffold attachment factor B1 T28G, Q15424 | -0.337 ± 0.055
Scaffold attachment factor B1 T28H, Q15424 | -0.434 ± 0.09
Scaffold attachment factor B1 T28I, Q15424 | -0.038 ± 0.065
Scaffold attachment factor B1 T28L, Q15424 | -0.261 ± 0.07
Scaffold attachment factor B1 T28M, Q15424 | -0.234 ± 0.083
Scaffold attachment factor B1 T28N, Q15424 | -0.196 ± 0.099
Scaffold attachment factor B1 T28P, Q15424 | -0.348 ± 0.07
Scaffold attachment factor B1 T28Q, Q15424 | -0.485 ± 0.073
Scaffold attachment factor B1 T28R, Q15424 | -0.301 ± 0.055
Scaffold attachment factor B1 T28S, Q15424 | -0.183 ± 0.055
Scaffold attachment factor B1 T28V, Q15424 | -0.229 ± 0.056
Scaffold attachment factor B1 T28W, Q15424 | -0.455 ± 0.088

Substance | abundance fitness
Scaffold attachment factor B1 T28Y, Q15424 | -0.073 ± 0.068
Scaffold attachment factor B1 T78A, Q15424 | -0.345 ± 0.09
Scaffold attachment factor B1 T78C, Q15424 | -0.267 ± 0.079
Scaffold attachment factor B1 T78D, Q15424 | -0.271 ± 0.086
Scaffold attachment factor B1 T78F, Q15424 | -0.323 ± 0.1
Scaffold attachment factor B1 T78H, Q15424 | -0.427 ± 0.096
Scaffold attachment factor B1 T78I, Q15424 | -0.17 ± 0.069
Scaffold attachment factor B1 T78K, Q15424 | -0.131 ± 0.076
Scaffold attachment factor B1 T78L, Q15424 | -0.091 ± 0.057
Scaffold attachment factor B1 T78M, Q15424 | -0.356 ± 0.086
Scaffold attachment factor B1 T78N, Q15424 | -0.182 ± 0.11
Scaffold attachment factor B1 T78P, Q15424 | -0.21 ± 0.071
Scaffold attachment factor B1 T78Q, Q15424 | -0.173 ± 0.074
Scaffold attachment factor B1 T78R, Q15424 | -0.123 ± 0.055
Scaffold attachment factor B1 T78V, Q15424 | -0.133 ± 0.07
Scaffold attachment factor B1 T78W, Q15424 | -0.279 ± 0.065
Scaffold attachment factor B1 T78Y, Q15424 | -0.173 ± 0.075
Scaffold attachment factor B1 V36C, Q15424 | -0.281 ± 0.072
Scaffold attachment factor B1 V36D, Q15424 | -0.125 ± 0.068
Scaffold attachment factor B1 V36E, Q15424 | -0.381 ± 0.078
Scaffold attachment factor B1 V36F, Q15424 | -0.279 ± 0.084
Scaffold attachment factor B1 V36G, Q15424 | -0.348 ± 0.057
